Laboratory results from PMC12258035, “AcABI5a integrates abscisic acid signaling to developmentally modulate fruit ascorbic acid biosynthesis in kiwifruit”.

Columns and labels:
AcABI5a-His [1] = molecular target: T1, AcABI5a-His (Actinidia chinensis? (cv. 'Donghong'), UniProt A0A2R6QW13 1-413); experiment: EMSA; unlabeled competitor weakens the band; EMSA in polyacrylamide gels with FAM probes; buffer, salt, pH and temperature not stated (refers to Hou et al. [71]); conditions: protein: recombinant; tags: 6xHis at N- and C-terminus (pET-32a); fusion 65 kDa; chain copies: 2; label: FAM (on F strand); blunt
T1 sequence: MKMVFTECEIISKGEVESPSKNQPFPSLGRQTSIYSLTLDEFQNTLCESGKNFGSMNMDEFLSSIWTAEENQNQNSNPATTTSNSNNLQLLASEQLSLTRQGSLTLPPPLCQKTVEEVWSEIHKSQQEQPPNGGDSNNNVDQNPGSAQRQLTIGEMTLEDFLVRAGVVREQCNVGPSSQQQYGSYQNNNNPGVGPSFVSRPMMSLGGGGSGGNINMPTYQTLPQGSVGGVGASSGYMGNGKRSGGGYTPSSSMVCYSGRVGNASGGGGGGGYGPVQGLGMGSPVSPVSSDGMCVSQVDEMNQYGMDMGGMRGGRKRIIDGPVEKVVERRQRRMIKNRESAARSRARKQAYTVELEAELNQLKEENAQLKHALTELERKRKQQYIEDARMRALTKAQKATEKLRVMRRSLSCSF

AcABI5a-His [2] = molecular target: T1, AcABI5a-His; experiment: EMSA; EMSA in polyacrylamide gels with FAM probes; buffer, salt, pH and temperature not stated (refers to Hou et al. [71]); conditions: protein: recombinant; tags: 6xHis at N- and C-terminus (pET-32a); fusion 65 kDa; chain copies: 2; label: FAM (on F strand); blunt

B1: AcMYBS1 promoter G-box probe (dsDNA)
DNA 1: ATATTTTGTTATACGTGTTAGAAGTTCA
DNA 2: TGAACTTCTAACACGTATAACAAAATAT
B1: binds (AcABI5a-His [1]).

B2: AcMYBS1 mutant probe (dsDNA)
DNA 1: ATATTTTGTTAAAAAAATTAGAAGTTCA
DNA 2: TGAACTTCTAATTTTTTTAACAAAATAT
B2: no binding (AcABI5a-His [2]).

B3: AcABI5a promoter G-box probe (dsDNA)
DNA 1: GCACCCTTGTAGACGTGAAATTGTAAGA
DNA 2: TCTTACAATTTCACGTCTACAAGGGTGC
B3: binds (AcABI5a-His [1]).

B4: AcABI5a promoter mutant probe (dsDNA)
DNA 1: GCACCCTTGTAAAAAAAAAATTGTAAGA
DNA 2: TCTTACAATTTTTTTTTTACAAGGGTGC
B4: no binding (AcABI5a-His [2]).
